# Source: patent publication US20110123544A1 (published 2011)
# T1: recombinant human IL-12 (rhIL-12) (human, UniProt P29459 23-219; P29460 23-328)
# T1 chain 1: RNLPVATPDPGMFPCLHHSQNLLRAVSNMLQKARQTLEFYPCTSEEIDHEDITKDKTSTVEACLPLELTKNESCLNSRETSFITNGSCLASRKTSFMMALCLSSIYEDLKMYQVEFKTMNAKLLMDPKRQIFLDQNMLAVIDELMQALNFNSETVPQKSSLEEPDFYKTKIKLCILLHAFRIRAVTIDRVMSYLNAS
# T1 chain 2: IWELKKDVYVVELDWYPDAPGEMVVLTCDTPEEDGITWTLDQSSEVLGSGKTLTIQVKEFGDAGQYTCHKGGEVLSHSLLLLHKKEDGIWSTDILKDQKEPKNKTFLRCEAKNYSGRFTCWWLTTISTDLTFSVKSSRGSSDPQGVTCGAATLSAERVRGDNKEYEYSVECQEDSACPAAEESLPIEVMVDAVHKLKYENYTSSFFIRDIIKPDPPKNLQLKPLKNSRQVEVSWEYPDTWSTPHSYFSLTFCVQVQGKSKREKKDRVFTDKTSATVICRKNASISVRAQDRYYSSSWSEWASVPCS
# T2: recombinant human interleukin 12 (p40/p35 heterodimer) (human, UniProt P29460 23-328; P29459 23-219)
# T2 chain 1: T1 chain 2
# T2 chain 2: T1 chain 1
# Molecular target: T1, recombinant human IL-12 (rhIL-12)
# Test: BIAcore
row,koff,Binder
1,0.000424 s⁻¹,SGGRSNIGSNPVK [Y61 L32 P]
2,0.000318 s⁻¹,SGGRSNIGSNKVK [Y61 L32 K]
3,0.00247 s⁻¹,SGGRSNIGSNQVK [Y61 L32 Q]
4,0.000366 s⁻¹,SGGRSNIGSGTVK [Y61 L31 G]
5,0.00191 s⁻¹,SGGRSNIGSNSVK [Y61 L32 S]
6,0.000483 s⁻¹,SGGRSNIGYNTVK [Y61 L30 Y]
7,9.7e-05 s⁻¹,SGGRSNIGSITVK [Y61 L31 I]
8,0.00381 s⁻¹,SGGRSNIGSNCVK [Y61 L32 C]
9,0.000315 s⁻¹,SGGRSNIGSHTVK [Y61 L31 H]
10,0.00215 s⁻¹,SGGRSNIGSNLVK [Y61 L32 L]
11,0.00191 s⁻¹,SGGRSNIGSNAVK [Y61 L32 A]
12,0.000166 s⁻¹,SGGRSNIGNNTVK [Y61 L30 N]

# Molecular target: T2, recombinant human interleukin 12 …
# Test: BIAcore
row,koff,Binder
1,0.00239 s⁻¹,HGWHDN [Y61 H97 W]
2,0.000688 s⁻¹,HGSFDN [Y61 H98 F]
3,0.00224 s⁻¹,HGRHDN [Y61 H97 R]

# Molecular target: T1, recombinant human IL-12 (rhIL-12)
# Test: BIAcore
# Remark: another data set of the same source
row,Binder,koff
1,QSYDCGTHPALL [Y61 L93 C],0.00032 s⁻¹
2,QSYIRGTHPALL [Y61 L92 I],0.000618 s⁻¹
3,QSYDMGTHPALL [Y61 L93 M],0.000275 s⁻¹
4,QSYDDGTHPALL [Y61 L93 D],0.000343 s⁻¹
5,QSYWRGTHPALL [Y61 L92 W],0.00072 s⁻¹
6,QSYDNGTHPALL [Y61 L93 N],0.000316 s⁻¹
7,QSYDLGTHPALL [Y61 L93 L],0.0003 s⁻¹
8,QSYDPGTHPALL [Y61 L93 P],0.000349 s⁻¹
9,QSYNRGTHPALL [Y61 L92 N],0.000347 s⁻¹
10,QSYFRGTHPALL [Y61 L92 F],0.000449 s⁻¹
11,QSYDAGTHPALL [Y61 L93 A],0.00031 s⁻¹
12,QSYDIGTHPALL [Y61 L93 I],0.000295 s⁻¹
13,QSYSRGTHPALL [Y61 L92 S],0.000307 s⁻¹
14,QSYARGTHPALL [Y61 L92 A],0.000357 s⁻¹
15,QSYGRGTHPALL [Y61 L92 G],0.000349 s⁻¹
16,QSYYRGTHPALL [Y61 L92 Y],0.000511 s⁻¹
17,QSYTRGTHPALL [Y61 L92 T],0.000408 s⁻¹
18,QSYLRGTHPALL [Y61 L92 L],0.000728 s⁻¹
19,QSYCRGTHPALL [Y61 L92 C],0.000453 s⁻¹
20,QSYQRGTHPALL [Y61 L92 Q],0.000427 s⁻¹
21,QSYDGGTHPALL [Y61 L93 G],0.000392 s⁻¹

# Other lines, results leading:
row,koff,Binder
1,0.000269 s⁻¹,QSYDVGTHPALL [Y61 L93 V]
2,0.00025 s⁻¹,QSYDRQTHPALL [Y61 L94 Q]
3,0.000253 s⁻¹,QSYDRDTHPALL [Y61 L94 D]
4,0.000244 s⁻¹,QSYDRLTHPALL [Y61 L94 L]
5,0.000335 s⁻¹,QSYDYGTHPALL [Y61 L93 Y]
6,0.000316 s⁻¹,QSYDTGTHPALL [Y61 L93 T]
7,0.000293 s⁻¹,QSYDRWTHPALL [Y61 L94 W]
8,0.000287 s⁻¹,QSYDRSTHPALL [Y61 L94 S]
9,0.00052 s⁻¹,QSYDRCTHPALL [Y61 L94 C]
10,0.000341 s⁻¹,QSYDSGTHPALL [Y61 L93 S]
11,0.000276 s⁻¹,QSYDRITHPALL [Y61 L94 I]
12,0.000332 s⁻¹,QSYDRPTHPALL [Y61 L94 P]
13,0.0003 s⁻¹,QSYDQGTHPALL [Y61 L93 Q]
14,0.000349 s⁻¹,QSYDWGTHPALL [Y61 L93 W]
15,0.000351 s⁻¹,QSYDRVTHPALL [Y61 L94 V]
16,0.000305 s⁻¹,QSYDRTTHPALL [Y61 L94 T]
17,0.000187 s⁻¹,QSYDRHTHPALL [Y61 L94 H]
18,0.000231 s⁻¹,QSYDRRTHPALL [Y61 L94 R]
19,0.000526 s⁻¹,QSYDRATHPALL [Y61 L94 A]
